# Patent US6861399B2, “Cleaning compositions containing human serine protease T” (Ortho-McNeil Pharmaceutical , Inc., priority 1999, dated 2005)
# Non-standard residues stand in square brackets, D forms with d. *: point of attachment. pNA = O=[N+]([O-])c1ccc(N*)cc1; HHT = not defined here
# Molecular target: T1, activated protease T-HA6×HIS (Homo sapiens, UniProt Q9BQR3, D40A/M35I/Q39Y/Q42E/T41L)
# T1 construct: made in house; host or cells: Sf9 insect cells (baculovirus)
# Assay: Amidolytic activity of activated protease T on chromogenic pNA substrates
# Assay type: biochemical
# Conditions: substrate at 500 uM; 10 mM Tris-HCl pH 7.8, 25 mM NaCl, 25 mM imidazole; pNA release over 120 minutes at 37° C., 405 nm; N.A. = No Activity
# Procedure: The conditioned medium from infected Sf9 cells was used to purify secreted recombinant PFEK-protease T-HA6×HIS zymogen. The medium was concentrated 5 to 10 fold using a Centriprep concentrator (Amicon Inc., Beverly, Mass.). 150 μl of a 50% Ni-NTA slurry (Qiagen, Valencia, Calif.) was added to 5 to 10 ml of the concentrated medium and mixed by shaking at 4° C. for 60 minutes. The zymogen-bound resin was washed 3 times with 1.5 ml of wash buffer (10 mM Tris-HCl (pH 8.0), 300 mM NaCl, and 15 mM imidazole), followed by with a 1.5 ml wash with ds H2O. Enterokinase cleavage was carried out by adding enterokinase (Novagen, Inc., Madison Wis.; or Sigma, St. Louis, Mo.) to the zymogen-bound Ni-NTA beads in a 150 ul volume at room temperature overnight with gentle shaking in a buffer containing 20 mM Tris-HCl (pH 7.4), 50 mM NaCl, and 2.0 mM CaCl2. The resin was then washed twice with 1.5 ml wash buffer. The activated protease T-HA6×HIS was eluted with elution buffer (20 mM Tris-HCl (pH 7.8), 250 mM NaCl, and 250 mM imidazole). Eluted protein concentration was determined by a Micro BCA Kit (Pierce, Rockford, Ill.) using bovine serum albumin as a standard. Amidolytic activities of the activated protease T-HA6×HIS was monitored by release of para-nitroaniline (pNA) from the synthetic substrates indicated in Table 1 and FIG. 6. […] Release of pNA was measured over 120 minutes at 37° C. on a micro-plate reader (Molecular Devices, Menlo Park, Calif.) with a 405 nm absorbance filter. The initial reaction rates (Vmax, mOD/min) were determined from plots of absorbance versus time using Softmax (Molecular Devices, Menlo Park, Calif.). […]
# Amidolytic activities of the activated serine proteases are monitored by release of para-nitroaniline (pNA) from synthetic substrates that are commercially available (Bachem California Inc., Torrance, […].; American Diagnostica Inc., Greenwich, Conn.; Kabi Pharmacia Hepar Inc., Franklin, Ohio). […] Release of pNA is measured over 120 min at 37° C. on a micro-plate reader (Molecular Devices, Menlo Park, Calif.) with a 405 nm absorbance filter. […]
# T1 sequence (Q9BQR3 35-290 M35I/Q39Y/D40A/T41L/Q42E limits assumed): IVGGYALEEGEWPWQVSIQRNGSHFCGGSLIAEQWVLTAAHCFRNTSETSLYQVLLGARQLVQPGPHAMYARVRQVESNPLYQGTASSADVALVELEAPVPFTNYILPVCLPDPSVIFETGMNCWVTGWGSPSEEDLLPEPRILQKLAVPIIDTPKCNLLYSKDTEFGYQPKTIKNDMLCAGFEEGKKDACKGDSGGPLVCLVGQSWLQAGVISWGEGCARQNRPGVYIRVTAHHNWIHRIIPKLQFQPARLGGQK
row,Substance,Specific Activity
1,H-DL-Val-Leu-Arg-pNA (H-Val-Leu-Arg-pNA; also: DL-Val (racemic) at 1) [commercially available chromogenic substrate],0.016 ± 0.003 nmole pNA produced/min/μg protein
2,H-D-Lys(CBO)-Pro-Arg-pNA (H-[dK](CBO)-Pro-Arg-pNA) [commercially available chromogenic substrate],0.057 ± 0.022 nmole pNA produced/min/μg protein
3,H-D-Pro-HHT-Arg-pNA (H-[dP]-[HHT]-Arg-pNA; reading uncertain; also: printed as H-D-Pro-HHT-Arg-pNA) [commercially available chromogenic substrate],0.010 ± 0.000 nmole pNA produced/min/μg protein
